Results published in the supplement of paper PMC10126150.
± gives the standard deviation of the averaged measurements.

Tested on: ATP
Assay: switch fluorescence ratio, 500 uM ATP over buffer (Cy3 cluster intensity, sum of 5 cycles each) (fold (ratio)); higher = stronger signal-on switching upon ATP binding; sequences stand for … in TCGTCGGCAGCGTCAGATGTGTATAAGAGACAGTTTTTTTTTTTTTTTTTTTTTTTTT…TC
Details: aptamer strand: ATP DNA aptamer (quencher-CACCTGGGGGAGTATTGCGGAGGAAGG + anchor), 100 nM annealed; ATP concentration: 500 uM
Outline: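 For every switch-domain sequence, the fluorescence ratio is the mean of per-cluster values, each being summed target-cycle Cy3 intensity over summed buffer-cycle Cy3 intensity. Clusters outside 100-1000 RFU were excluded. On a modified Illumina MiSeq flow-cell, the Cy3-labelled switching-strand clusters were annealed to 100 nM quencher-labelled ATP aptamer, imaged in selection buffer and then after 15 min with 500 uM ATP at 22 °C. Five such cycles were run, with NaOH stripping and re-annealing between them.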
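Note: ATP exposure 15 min at 22 °C before imaging.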

Sequence	switch fluorescence ratio
ATACGATTTG	0.971 ± 0.038
ATACGGGAAT	1.05 ± 0.022
ATACGTTGAA	1 ± 0.045
ATACTGTCGC	1.0874 ± 0.0002
ATACTTAGTG	0.986 ± 0.019
ATACTTGATT	0.994 ± 0.025
ATACTTTGGT	0.9944 ± 0.0018
ATAGAAATTG	1.01 ± 0.035
ATAGAAGGGT	1.01 ± 0.026
ATAGAATCAA	1.02 ± 0.022
ATAGACACGC	1.034 ± 0.0078
ATAGACAGAC	1.136 ± 0.0095
ATAGACGAGG	0.9809 ± 0.0011
ATAGAGTTCT	0.997 ± 0.041
ATAGATCAGC	0.995 ± 0.025
ATAGATGGCC	0.95 ± 0.056
ATAGCCCGGG	0.986 ± 0.011
ATAGCCGTCG	1.07 ± 0.12
ATAGCTACGC	1.035 ± 0.003
ATAGCTCTCG	1.01 ± 0.037
ATAGGAAAAA	0.963 ± 0.059
ATAGGAGTTG	1.033 ± 0.0089
ATAGGCCAG	0.9898 ± 0.0067

Sequence	switch fluorescence ratio
ATAGGCGGAG	0.965 ± 0.02
ATAGGCGGGT	1.004 ± 0.005
ATAGGCTAAA	1.04 ± 0.044
ATAGGCTAGT	1.02 ± 0.025
ATAGGCTGTT	0.986 ± 0.038
ATAGGGACAC	1.07 ± 0.033
ATAGGGATAG	1.01 ± 0.047
ATAGGGGAGT	0.993 ± 0.03
ATAGGGGGGC	1.01 ± 0.074
ATAGGGGTCG	1.01 ± 0.076
ATAGGGGTGC	1.02 ± 0.042
ATAGGGTAAG	0.965 ± 0.018
ATAGGGTCCG	0.977 ± 0.024
ATAGGTATCT	0.988 ± 0.019
ATAGGTATGA	0.988 ± 0.01
ATAGGTCCGG	0.9957 ± 0.0041
ATAGGTCTCA	1 ± 0.013
ATAGGTCTTA	0.983 ± 0.04
ATAGGTGAGA	1.06 ± 0.02
ATAGGTTTTT	0.973 ± 0.024
ATAGTAAAGG	0.994 ± 0.031
ATAGTACTTT	1.05 ± 0.044
ATAGTAGCTA	0.9764 ± 0.0016

Sequence	switch fluorescence ratio
ATAGTATGTT	0.99 ± 0.051
ATAGTATTAT	0.968 ± 0.015
ATAGTCAAGG	0.982 ± 0.028
ATAGTCAGAT	0.969 ± 0.014
ATAGTCCCAC	0.9901 ± 0.009
ATAGTGACCG	1.01 ± 0.013
ATAGTGAGCG	1.01 ± 0.025
ATAGTGAGGT	0.986 ± 0.038
ATAGTGCTGT	0.97717 ± 0.00097
ATAGTGGGGA	1.04 ± 0.026
ATAGTTGGGA	1.018 ± 0.0011
ATAGTTGGTT	1.01 ± 0.03
ATAGTTTGAT	1.01 ± 0.022
ATAGTTTTTG	0.993 ± 0.012
ATAGTTTTTT	0.977 ± 0.017
ATATAAAGGG	0.996 ± 0.025
ATATACGGCA	1.19 ± 0.08
ATATAGGTA	1.036 ± 0.0097
ATATAGGTTT	1.01 ± 0.0081
ATATAGTTCG	0.967 ± 0.047
ATATAGTTTG	1.001 ± 0.0031
ATATATATCG	1.01 ± 0.0093
ATATATCGTG	0.995 ± 0.019

Sequence	switch fluorescence ratio
ATATATGGAG	1.011 ± 0.00029
ATATATGGTG	1.05 ± 0.02
ATATCAGGGG	1.13 ± 0.017
ATATCATGGG	0.982 ± 0.017
ATATCATGTC	0.9895 ± 0.0032
ATATCATTCA	1.01 ± 0.019
ATATCCAGGA	1.02 ± 0.018
ATATCCGCTG	1.52 ± 0.071
ATATCGGCAT	1.01 ± 0.035
ATATCGGTAG	0.999 ± 0.014
ATATCTATTT	0.997 ± 0.019
ATATCTTTTG	0.9904 ± 0.0088
ATATGAAGAG	0.99884 ± 9.2e-05
ATATGAAGGG	1 ± 0.032
ATATGAATA	0.9987 ± 0.0037
ATATGCAGGA	0.965 ± 0.03
ATATGCCGAT	0.996 ± 0.013
ATATGCGGCG	1.02 ± 0.073
ATATGCGTAT	1.01 ± 0.02
ATATGCTCAC	1.05 ± 0.03
ATATGGAGAT	0.98 ± 0.017
ATATGGATAA	1.01 ± 0.012
ATATGGGCTG	1.05 ± 0.1

Sequence	switch fluorescence ratio
ATATGGTAGT	1.03 ± 0.032
ATATGGTGCT	1.004 ± 0.0074
ATATGGTGGG	1.01 ± 0.025
ATATGTAGGT	0.998 ± 0.049
ATATGTATGG	0.968 ± 0.011
ATATGTGACT	0.977 ± 0.014
ATATGTGAGG	0.985 ± 0.0073
ATATGTGCCA	0.98 ± 0.02
ATATGTGGCG	0.932 ± 0.011
ATATGTGGGT	0.989 ± 0.038
ATATGTTGAA	1.02 ± 0.027
ATATGTTGAG	1 ± 0.017
ATATGTTTTT	0.996 ± 0.018
ATATTAGTTT	1 ± 0.011
ATATTATGAT	0.985 ± 0.03
ATATTATGGG	0.9979 ± 0.0095
ATATTCGGAA	0.99369 ± 0.00071
ATATTCGTTG	1.007 ± 0.0027
ATATTGAGGC	1.01 ± 0.038
ATATTGCTGG	0.9724 ± 0.0085
ATATTGGTGG	0.991 ± 0.042
ATATTTAATC	0.999 ± 0.0079
ATATTTAGCG	0.968 ± 0.016

Sequence	switch fluorescence ratio
ATATTTGATT	0.977 ± 0.021
ATATTTGGAG	0.9981 ± 0.003
ATATTTGGCC	0.974 ± 0.021
ATATTTTAAC	1 ± 0.012
ATATTTTGTG	0.982 ± 0.026
ATATTTTGTT	1.03 ± 0.066
ATATTTTTAT	0.987 ± 0.0082
ATATTTTTGG	0.993 ± 0.011
ATCAAAAACG	1.01 ± 0.029
ATCAAAAGAT	0.9811 ± 0.0085
ATCAAAGGGG	1 ± 0.0072
ATCAAATCGG	1.01 ± 0.025
ATCAAGGGGA	0.972 ± 0.028
ATCAATGGCA	0.975 ± 0.035
ATCAATGGGT	0.979 ± 0.025
ATCAATGTTC	1.07 ± 0.094
ATCAATTCGA	1.021 ± 0.0038
ATCAATTGAT	1.01 ± 0.052
ATCACATGAC	1.19 ± 0.016
ATCACATTCG	1.02 ± 0.043
ATCACGCGTA	1.02 ± 0.037
ATCACGGGCT	0.967 ± 0.027
ATCACTAGGA	1.04 ± 0.037

Sequence	switch fluorescence ratio
ATCACTCACT	1.18 ± 0.06
ATCACTCGTA	1.03 ± 0.043
ATCAGACTTG	1.023 ± 0.0012
ATCAGAGCTG	0.964 ± 0.032
ATCAGATGAA	0.999 ± 0.023
ATCAGATTGG	0.989 ± 0.0099
ATCAGGATGC	1.04 ± 0.063
ATCAGGCATT	1.03 ± 0.011
ATCAGGGACA	1.18 ± 0.017
ATCAGGGTAC	1.05 ± 0.04
ATCATAAGGT	1.02 ± 0.02
ATCATCCGTT	1.04 ± 0.025
ATCATGAGGT	0.97829 ± 0.00072
ATCATGCTTC	0.994 ± 0.025
ATCATGTGTT	0.994 ± 0.022
ATCATTCAAA	1.008 ± 0.0073
ATCATTCCTC	1.573 ± 0.011
ATCATTGGGC	0.988 ± 0.025
ATCATTGGTA	1 ± 0.023
